Laboratory results as given in IntAct's records for PubMed 21209328.

B1: PEP-dependent dihydroxyacetone kinase, ADP-binding subunit DhaL (Escherichia coli (strain K12)), P76014 (parent)
chain: MSLSRTQIVNWLTRCGDIFSTESEYLTGLDREIGDADHGLNMNRGFSKVVEKLPAIADKDIGFILKNTGMTLLSSVGGASGPLFGTFFIRAAQATQARQSLTLEELYQMFRDGADGVISRGKAEPGDKTMCDVWVPVVESLRQSSEQNLSVPVALEAASSIAESAAQSTITMQARKGRASYLGERSIGHQDPGATSVMFMMQMLALAAKE
partner: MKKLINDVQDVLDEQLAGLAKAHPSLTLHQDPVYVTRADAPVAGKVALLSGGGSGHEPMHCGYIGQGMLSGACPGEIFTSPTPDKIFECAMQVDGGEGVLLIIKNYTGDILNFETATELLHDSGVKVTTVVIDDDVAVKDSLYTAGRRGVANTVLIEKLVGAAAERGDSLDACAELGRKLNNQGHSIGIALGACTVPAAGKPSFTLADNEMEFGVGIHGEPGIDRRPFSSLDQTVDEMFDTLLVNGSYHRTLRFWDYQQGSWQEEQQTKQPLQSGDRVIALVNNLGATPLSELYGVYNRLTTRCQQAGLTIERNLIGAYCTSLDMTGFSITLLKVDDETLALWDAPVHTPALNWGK

Variants of: B1
Details: with dhak_ecoli dhaK

| effect of a mutation on the interaction | Variant |
| --- | --- |
| disrupting interaction strength | MSLSRTQIVNWLTRCGDIFSTESEYLTGLDREIGDADHGLNMNRGFSKVVEKLPAIADKDIGFILKNTGMTLLSSVGGASGPLFGTFFIRAAQATQARQSLTLEELYQMFRDGADGVISRGKAEPGDKTMCDVWVPVVESLRQSSEQNLSVPVALEAASSIAESAAQSTITMQARKGEASYLGERSIGHQDPGATSVMFMMQMLALAAKE [R178E] |
